# B1: Ubiquitin carboxyl-terminal hydrolase BAP1 (Mus musculus), Q99PU7 (parent)
# chain: MNKGWLELESDPGLFTLLVEDFGVKGVQVEEIYDLQSKCQGPVYGFIFLFKWIEERRSRRKVSTLVDDTSVIDDDIVNNMFFAHQLIPNSCATHALLSVLLNCSNVDLGPTLSRMKDFTKGFSPESKGYAIGNAPELAKAHNSHARPEPRHLPEKQNGLSAVRTMEAFHFVSYVPITGRLFELDGLKVYPIDHGPWGEDEEWTDKARRVIMERIGLATAGEPYHDIRFNLMAVVPDRRIKYETRLHVLKVNRQTVLEALQQLIRVTQPELIQTHKSQESQLPEESKPASSKSPLGLEAGRTPVASECTQTDGAEEVAGSCPQTTTHSPPSKCKLVVKPPGSSLNGVPPNPAPIVQRLPAFLDNHNYAKSPMQEEEDLAAGVGRSRVPVRAPQQYSEDEDDYEDEDEDVQNTNPAIRYKRKGTGKPGSLSNSSDGQLSVLQPNTINVLTEKLQESQKDLSVPLSIKTSSGAGSPAVAVPTHSQPSPTPSNESTDTASEIGSAFNSPLRSPIRSANPTRPSSPVTSHISKVLFGEDDSLLRVDCIRYNRAVRDLGPVISTGLLHLAEDGVLSPLALTEGGKGSSPSTRSSQGSQGSSGLEEKEVVEVTESRDKPGLNRSSEPLSGEKYSPKELLALLKCVEAEIANYEACLKEEVEKRKKFKIDDQRRTHNYDEFICTFISMLAQEGMLANLVEQNISVRRRQGVSIGRLHKQRKPDRRKRSRPYKAKRQ
# Variants of: B1
# Details: with brca1_human BRCA1, P38398
# Chain of brca1_human BRCA1, P38398 (P38398 whole entry, looked up): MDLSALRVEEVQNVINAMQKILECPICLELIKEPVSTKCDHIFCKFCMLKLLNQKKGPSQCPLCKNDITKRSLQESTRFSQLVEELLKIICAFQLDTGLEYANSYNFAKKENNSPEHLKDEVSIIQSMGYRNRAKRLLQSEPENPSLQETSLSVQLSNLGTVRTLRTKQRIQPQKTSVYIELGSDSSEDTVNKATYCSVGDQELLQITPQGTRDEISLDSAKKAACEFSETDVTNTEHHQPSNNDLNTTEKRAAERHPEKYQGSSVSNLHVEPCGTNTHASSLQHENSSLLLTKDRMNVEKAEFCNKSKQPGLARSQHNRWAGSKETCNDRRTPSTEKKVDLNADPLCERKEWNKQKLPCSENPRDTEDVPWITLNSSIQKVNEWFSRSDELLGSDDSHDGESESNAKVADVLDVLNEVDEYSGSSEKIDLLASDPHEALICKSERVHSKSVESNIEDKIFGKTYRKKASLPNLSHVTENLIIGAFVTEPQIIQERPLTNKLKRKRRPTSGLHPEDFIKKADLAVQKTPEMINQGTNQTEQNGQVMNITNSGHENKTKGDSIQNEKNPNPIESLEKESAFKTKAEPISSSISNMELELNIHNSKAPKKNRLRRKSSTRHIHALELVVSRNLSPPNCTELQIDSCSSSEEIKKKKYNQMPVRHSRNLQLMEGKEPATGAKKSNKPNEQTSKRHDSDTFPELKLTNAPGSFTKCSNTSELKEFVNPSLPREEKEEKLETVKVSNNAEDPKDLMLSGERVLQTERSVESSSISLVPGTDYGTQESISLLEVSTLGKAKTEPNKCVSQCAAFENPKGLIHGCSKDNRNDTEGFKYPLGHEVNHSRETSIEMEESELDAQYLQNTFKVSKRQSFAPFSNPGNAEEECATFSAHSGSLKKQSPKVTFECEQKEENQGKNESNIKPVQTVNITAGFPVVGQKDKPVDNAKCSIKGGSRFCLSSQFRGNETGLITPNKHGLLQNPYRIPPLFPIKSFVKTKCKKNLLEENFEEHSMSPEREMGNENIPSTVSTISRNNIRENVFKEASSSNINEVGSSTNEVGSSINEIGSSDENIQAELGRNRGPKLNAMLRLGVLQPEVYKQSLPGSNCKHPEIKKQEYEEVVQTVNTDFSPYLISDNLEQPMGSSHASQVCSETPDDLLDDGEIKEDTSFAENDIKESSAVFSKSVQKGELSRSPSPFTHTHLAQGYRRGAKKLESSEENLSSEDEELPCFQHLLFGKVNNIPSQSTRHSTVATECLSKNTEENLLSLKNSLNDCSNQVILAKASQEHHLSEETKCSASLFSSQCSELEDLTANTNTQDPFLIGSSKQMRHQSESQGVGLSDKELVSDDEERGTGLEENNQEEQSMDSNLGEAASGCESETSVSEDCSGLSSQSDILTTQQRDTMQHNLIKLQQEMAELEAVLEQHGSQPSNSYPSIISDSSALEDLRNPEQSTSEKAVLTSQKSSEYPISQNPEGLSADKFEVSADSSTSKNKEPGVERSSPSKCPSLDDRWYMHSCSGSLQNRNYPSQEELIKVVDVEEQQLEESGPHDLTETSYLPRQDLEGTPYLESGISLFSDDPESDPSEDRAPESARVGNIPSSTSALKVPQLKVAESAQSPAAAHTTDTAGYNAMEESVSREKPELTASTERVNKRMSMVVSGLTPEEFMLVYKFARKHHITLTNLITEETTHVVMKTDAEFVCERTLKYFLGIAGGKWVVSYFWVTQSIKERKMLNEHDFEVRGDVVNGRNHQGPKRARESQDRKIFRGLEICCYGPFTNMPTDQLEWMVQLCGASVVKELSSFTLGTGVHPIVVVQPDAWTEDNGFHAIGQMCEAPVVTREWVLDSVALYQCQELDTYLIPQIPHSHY
row,effect of a mutation on the interaction,Variant
1,disrupting interaction,L690P

# From IntAct's records for PubMed 9528852
